Test results as given in patent US20240228562A1 (Pieris, published 2024).

T1: mouse CTGF (Abbexa) (mouse, UniProt P29268 26-348, limits assumed)
T1 construct: also called Murine CTGF; mCTGF
T1 sequence (looked up): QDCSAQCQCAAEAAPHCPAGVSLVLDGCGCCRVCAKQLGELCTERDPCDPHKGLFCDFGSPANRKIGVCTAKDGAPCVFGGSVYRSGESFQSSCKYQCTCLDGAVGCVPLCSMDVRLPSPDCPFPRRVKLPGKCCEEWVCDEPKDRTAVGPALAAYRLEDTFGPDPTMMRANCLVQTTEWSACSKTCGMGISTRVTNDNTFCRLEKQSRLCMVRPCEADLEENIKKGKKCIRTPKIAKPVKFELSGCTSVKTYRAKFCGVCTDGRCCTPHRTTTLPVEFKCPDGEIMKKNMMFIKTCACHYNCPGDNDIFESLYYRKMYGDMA

T2: huCYR61 (human, UniProt O00622 25-381, limits assumed)
T2 construct: also called human CYR61 (CCN1)
T2 sequence (looked up): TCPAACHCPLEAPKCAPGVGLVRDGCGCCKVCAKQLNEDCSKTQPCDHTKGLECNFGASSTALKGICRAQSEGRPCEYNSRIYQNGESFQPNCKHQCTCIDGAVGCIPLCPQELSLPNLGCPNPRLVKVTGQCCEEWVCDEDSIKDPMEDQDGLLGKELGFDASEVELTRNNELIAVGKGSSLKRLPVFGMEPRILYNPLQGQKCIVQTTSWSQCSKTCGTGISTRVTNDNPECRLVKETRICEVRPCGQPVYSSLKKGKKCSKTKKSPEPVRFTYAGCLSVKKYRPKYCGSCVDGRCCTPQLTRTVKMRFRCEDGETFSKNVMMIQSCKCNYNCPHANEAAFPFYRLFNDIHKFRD

T3: huWISP-1 (human, UniProt O95388 23-367, limits assumed)
T3 construct: also called human WISP-1 (CCN4)
T3 sequence (looked up): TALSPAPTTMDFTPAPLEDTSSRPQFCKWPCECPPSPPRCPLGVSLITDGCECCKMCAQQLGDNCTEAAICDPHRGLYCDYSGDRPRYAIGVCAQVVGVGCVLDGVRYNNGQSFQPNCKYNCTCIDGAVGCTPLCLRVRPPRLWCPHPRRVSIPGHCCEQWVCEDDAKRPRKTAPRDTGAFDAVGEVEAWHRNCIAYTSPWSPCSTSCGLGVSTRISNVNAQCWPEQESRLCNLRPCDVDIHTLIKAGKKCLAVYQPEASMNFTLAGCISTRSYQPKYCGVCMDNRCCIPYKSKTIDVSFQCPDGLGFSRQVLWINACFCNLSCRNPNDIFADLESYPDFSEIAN

T4: recombinant human CTGF protein (R&D Systems, SEQ ID NO: 79) (human, UniProt P29279 27-349)
T4 construct: Bought; also called human CTGF/CNN2; huCTGF
T4 sequence: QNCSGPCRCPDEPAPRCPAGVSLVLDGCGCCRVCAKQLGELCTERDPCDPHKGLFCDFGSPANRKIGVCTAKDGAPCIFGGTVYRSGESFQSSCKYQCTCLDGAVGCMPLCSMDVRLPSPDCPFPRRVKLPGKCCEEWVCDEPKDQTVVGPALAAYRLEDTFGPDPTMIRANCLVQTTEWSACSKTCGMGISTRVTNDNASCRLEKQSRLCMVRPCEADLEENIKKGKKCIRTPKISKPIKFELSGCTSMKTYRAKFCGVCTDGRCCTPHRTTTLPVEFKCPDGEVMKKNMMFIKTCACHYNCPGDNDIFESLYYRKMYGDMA

B1: lipocalin mutein of SEQ ID NO: 15 (designed binder)
chain: QDSTSDLIPAPPLSKVPLQQNFQDNQFQGKWYVVGLAGNAILREDKQPAKMFATIYELKEDKSYDVTSVRFEAKSCKYTIKTFVPGSQPGEFTAGYIKSAPGQTSTLVRVVSTNYNQHAMVFFKHVTQNREIFVITLYGRTKELTSELKENFIRFSKSLGLPENHIVFPVPIDQCIDG
notes: also called hNGAL mutein; not shown: C-terminal His-tag
B2: lipocalin mutein of SEQ ID NO: 9 (designed binder)
chain: QDSTSDLIPAPPLSKVPLQQNFQDNQFHGKWYVVGLAGNKILRIDKQPAKMFATIYELKEDKSYDVTSVRFEARSCSYTIKTFVPGSQPGEFTAGNIKSAPGQTSTLVRVVSTNYNQHAMVFFKHVSQNRETFVITLYGRTKELTSELKENFIRFSKSLGLPENHIVFPVPIDQCIDGSAWSHPQFEK
notes: Parent hNGAL mutein; also called hNGAL mutein
B3: lipocalin mutein of SEQ ID NO: 25 (designed binder)
chain: QDSTSDLIPAPPLSKVPLQQNFQDNQFHGKWYVVGMAGNFRLREDKDPSKMGATIYELKEDKSYNVTQVQFDDKKCLYVIETFVPGSQPGEFTLGAIKSFPGFTSQLVRVVSTNYNQHAMVFFKKVYQNREVFWITLYGRTKELTSELKENFIRFSKSLGLPENHIVFPVPIDQCIDGSAWSHPQFEK
notes: as for B2
B4: lipocalin mutein of SEQ ID NO: 29 (designed binder)
chain: QDSTSDLIPAPPLSKVPLQQNFQDNQFHGKWYVVGWAGNIKLREDKDPFKMSATIYELKEDKSYNVTEVVFEQKKCHYIIKTFVPGSQPGEFTLGDIKSPPGETSSLVRVVSTNYNQHAMVFFKKVFQNREFFWITLYGRTKELTSELKENFIRFSKSLGLPENHIVFPVPIDQCIDGSAWSHPQFEK
notes: as for B2
B5: lipocalin mutein of SEQ ID NO: 3 (designed binder)
chain: QDSTSDLIPAPPLSKVPLQQNFQDNQFHGKWYVVGRAGNNRLREDKDPPKMWATIYELKEDKSYNVTHVHFMTKKCRYIIDTFVPGSQPGEFTLGAIKSGPGMTSPLVRIVSTNYNQHAMVFFKWVNQNREWFTITLYGRTKELTSELKENFIRFSKSLGLPENHIVFPVPIDQCIDGSAWSHPQFEK
notes: as for B2
B6: lipocalin mutein of SEQ ID NO: 7 (designed binder)
chain: QDSTSDLIPAPPLSKVPLQQNFQDNQFHGKWYVVGLAGNYGLRTDKRPSKMFATIYELKEDKSYDVTSVRFEQERCHYTIRTFVPGSQPGEFTTGSIKSRPGQTSSLVRVVSTNYNQHAMVFFKSVIQNREYFAITLYGRTKELTSELKENFIRFSKSLGLPENHIVFPVPIDQCIDGSAWSHPQFEK
notes: as for B2

Target: T1, mouse CTGF (Abbexa)
Assay: SPR (Biacore)
Summary of the method: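 Lipocalin muteins injected at 25 °C over CTGF either Fc-tagged and captured by anti-human IgG-Fc (0.25-2.5 μg/mL in HBS-EP+, 180 s) or amine-coupled directly to a CM5 chip. Association 180 s, dissociation 900-3600 s, flow 30 μL/min.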

Row | Kd | koff | kon | Binder | binding result
1 | 0.349 nM | 4.51e-05 s⁻¹ | 129000 M⁻¹ s⁻¹ | B1 | –
2 | 6.26 nM | 0.000832 s⁻¹ | 133000 M⁻¹ s⁻¹ | B2 | –
3 | – | – | – | B3 | no binding (tested: typically 0.43-2000 nM)
4 | – | – | – | B4 | no binding (tested: typically 0.43-2000 nM)

Target: T2, huCYR61
Assay: ELISA, coated CCN protein
Summary of the method: (§1)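 Plates coated with each CCN protein at 1 μg/ml overnight at 4 °C, blocked with PBS-T/BSA, then serially diluted muteins from 1000 nM bound 1 h at RT. Detection with HRP anti-NGAL or anti-Strep-Tag and fluorogenic substrate; cross-reactivity judged when the CTGF signal neared saturation.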

Row | Binder | binding result
5 | B1 | no binding (tested: dilutions starting at 1000 nM)
6 | B2 | no binding (tested: dilutions starting at 1000 nM)
7 | B5 | no binding (tested: dilutions starting at 1000 nM)
8 | B3 | no binding (tested: dilutions starting at 1000 nM)
9 | B4 | no binding (tested: dilutions starting at 1000 nM)
10 | B6 | no binding (tested: dilutions starting at 1000 nM)

Target: T3, huWISP-1
Assay: ELISA, coated CCN protein
Summary of the method: as §1

Row | Binder | binding result
11 | B1 | no binding (tested: dilutions starting at 1000 nM)
12 | B2 | no binding (tested: dilutions starting at 1000 nM)
13 | B5 | no binding (tested: dilutions starting at 1000 nM)
14 | B3 | no binding (tested: dilutions starting at 1000 nM)
15 | B4 | no binding (tested: dilutions starting at 1000 nM)
16 | B6 | no binding (tested: dilutions starting at 1000 nM)

Target: T5, murine CTGF (Biozol, SEQ ID NO: 80) (murine)
T5 construct: Bought; also called muCTGF
Assay: ELISA, coated target

Row | EC50 | Binder | binding result
17 | 11 nM | B2 | –
18 | – | B3 | no binding (tested: dilutions starting at 1000 nM)
19 | – | B4 | no binding (tested: dilutions starting at 1000 nM)
20 | 29 nM | B6 | –

Target: T4, recombinant human CTGF protein (R&D …)
Assay: ELISA, coated target

Row | EC50 | Binder
21 | 14 nM | B2
22 | 6.9 nM | B5
23 | 11 nM | B3
24 | 11 nM | B4
25 | 34 nM | B6

Target: T6, huCTGF domains 1 and 2 with human Fc tag (human)
T6 construct: Made by Evitria; also called Human CTGF1-2-huFc
Assay: ELISA, coated target

Row | EC50 | Binder | binding result
26 | 8 nM | B2 | –
27 | – | B5 | no binding (tested: dilutions starting at 1000 nM)
28 | 8.8 nM | B3 | –
29 | 8.4 nM | B4 | –
30 | 17 nM | B6 | –

Target: T7, muCTGF domains 1 and 2 with human Fc tag (murine)
T7 construct: Made by Evitria; also called Murine CTGF1-2-huFc
T7 sequence (chain, as listed by the source limits assumed): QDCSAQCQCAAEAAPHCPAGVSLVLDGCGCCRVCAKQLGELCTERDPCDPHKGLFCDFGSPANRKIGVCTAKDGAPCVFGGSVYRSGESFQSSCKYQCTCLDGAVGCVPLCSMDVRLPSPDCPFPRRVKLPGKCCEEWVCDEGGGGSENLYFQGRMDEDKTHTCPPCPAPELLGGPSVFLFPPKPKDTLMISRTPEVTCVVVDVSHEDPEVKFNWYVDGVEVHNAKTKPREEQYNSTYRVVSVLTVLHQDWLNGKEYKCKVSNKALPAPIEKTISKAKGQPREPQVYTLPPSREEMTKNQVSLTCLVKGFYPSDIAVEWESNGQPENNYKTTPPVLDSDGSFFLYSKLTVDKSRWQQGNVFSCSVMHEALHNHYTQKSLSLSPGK
Assay: ELISA, coated target

Row | EC50 | Binder | binding result
31 | 5.8 nM | B2 | –
32 | – | B5 | no binding (tested: dilutions starting at 1000 nM)
33 | 14 nM | B3 | –
34 | 17 nM | B4 | –
35 | 14 nM | B6 | –
